Measured values taken from publication PMC11864512.

Biological target: Ikoma lyssavirus glycoprotein ectodomain (IKOV-G-ecto) (Ikoma lyssavirus (IKOV))
Assay: crystal structure

“Ikoma lyssavirus glycoprotein ectodomain (IKOV-G-ecto) (domain or fragment)” gave a stoichiometry N of 3.
